For experiment [1], the target named is T1, IGF-II (amino acids 1-67) (human, UniProt P01344 25-91).
T1 construct: mature; also called IGF-II (67aa); IGF2
Briefly: competition SPR (Biacore T100) on immobilized huIR-A ECD, measurement #1. The method, then: Competition SPR (BIACORE®) was performed under conditions of partially mass-transport limited conditions according to previously described methodology (Nieba et al., 1996). Approximately 16,700 relative response units (RU) of huIR-A (-exon11) ectodomain was coupled by standard amine chemistry to a BIACORE® CM5 chip sensor. Uncoated flow-cell surface was used as a reference. […] Regeneration of the surface was achieved by injection of 30 ul NaCltrate/NaCl pH 4.5. […] These Req estimates were subsequently plotted against total concentrations of Fab used and the resulting inhibition curve was utilised to calculate dissociation constant (KD).
A general note: Surface plasmon resonance follows binding to a sensor surface in real time, without labels.

Experiment [2] deals with T1, IGF-II (amino acids 1-67). Description: SPR (Biacore T100): IgG captured on Protein G', IGF-II injected. The method, then: (§1) BIACORE® T100 and a CM5 chip coated with Protein G were utilised to set up following assay. Approximately 1000 RU of Protein G′ was immobilized on a CM5 chip using standard amine chemistry immobilization method. Entire assay consisted of three sequential injection of following four reagents 1) Candidate IgG was injected onto Protein G′ at 10 ug/ml at 5 ul/min for 180 sec.

The target of experiment [3] is T1, IGF-II (amino acids 1-67). Description: SPR (Biacore), non-germlined IgG.
Experiment [4] deals with T1, IGF-II (amino acids 1-67). Description: SPR (Biacore T100): IgG captured on Protein G', ligand bound, then BP injected; competitor BP4. How it is done:
as §1

The target in experiment [5] is T1, IGF-II (amino acids 1-67). Description: SPR (Biacore T100): IgG captured on Protein G', ligand bound, then BP injected; competitor BP2. The method, then:
as §1

The next experiment deals with T2, IGF binding protein BP2 (UniProt P18065 36-325).
T2 construct: also called IGF BP2
T2 sequence (looked up): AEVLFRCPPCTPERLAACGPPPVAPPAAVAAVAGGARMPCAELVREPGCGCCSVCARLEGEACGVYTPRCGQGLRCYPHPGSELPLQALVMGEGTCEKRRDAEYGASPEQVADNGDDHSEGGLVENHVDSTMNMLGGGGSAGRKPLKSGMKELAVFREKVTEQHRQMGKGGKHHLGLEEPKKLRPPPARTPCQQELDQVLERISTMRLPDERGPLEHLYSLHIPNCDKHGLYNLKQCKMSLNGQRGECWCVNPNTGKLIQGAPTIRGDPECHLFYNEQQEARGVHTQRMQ
Description: SPR (Biacore T100): control with no IGF-II injected before the BP. How it is done:
as §1

The next experiment concerns the target T3, IGF binding protein BP4 (UniProt P22692 22-258).
T3 construct: also called IGF BP4
T3 sequence (looked up): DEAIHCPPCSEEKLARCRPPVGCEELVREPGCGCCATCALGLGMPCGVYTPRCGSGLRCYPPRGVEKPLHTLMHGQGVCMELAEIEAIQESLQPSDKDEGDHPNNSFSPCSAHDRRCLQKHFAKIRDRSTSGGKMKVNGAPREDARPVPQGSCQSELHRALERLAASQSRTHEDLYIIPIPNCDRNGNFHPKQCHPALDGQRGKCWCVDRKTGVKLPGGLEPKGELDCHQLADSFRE
The description is as above. The method, then:
as §1

Experiment [6] has as its target T1, IGF-II (amino acids 1-67). Briefly: cell-based or functional assay.
Experiment [7] has as its target T1, IGF-II (amino acids 1-67). Briefly: SPR (Biacore), germlined IgG.

T1 sequence (P01344 25-91): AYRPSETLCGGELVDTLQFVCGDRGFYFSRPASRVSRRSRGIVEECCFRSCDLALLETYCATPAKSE

B1: M0073-C11 Fab (Fab, V domains shown)
VH: EVQLLESGGGLVQPGGSLRLSCAASGFTFSPYDMWWVRQAPGKGLEWVSSISSSGGITAYADSVKGRFTISRDNSKNTLYLQMNSLRAEDTAVYYCARAGYSSSWGYYYYGMDVWGQGTTVTVSS
VL: QSALTQPPSVSVSPGQTASITCSGDRLGDKYASWYQQKPGQSPVLVIYQDTKRPSGIPERFSGSNSGSTATLTISGTQAMDEADYYCQAWDSSTVVFGGGTKLTVL
notes: Anti-IGF-IIE Fab; the constant regions are printed only in part; also called 566A-M0073-C11; 566A-X0003-B02
On to B1, for which the binding result in experiment [1] is recorded as “no binding”.

B2: 566A-M0073-C11 IgG (antibody, V domains shown)
VH: EVQLLESGGGLVQPGGSLRLSCAASGFTFSPYDMWWVRQAPGKGLEWVSSISSSGGITAYADSVKGRFTISRDNSKNTLYLQMNSLRAEDTAVYYCARAGYSSSWGYYYYGMDVWGQGTTVTVSS
VL: QSALTQPPSVSVSPGQTASITCSGDRLGDKYASWYQQKPGQSPVLVIYQDTKRPSGIPERFSGSNSGSTATLTISGTQAMDEADYYCQAWDSSTVVFGGGTKLTVL
notes: also called 566A-X0003-B02
Take B2: the binding result in experiment [2] is reported as “no binding (tested: 50 nM)”.

B3: M0064-E04 IgG (antibody, V domains shown)
VH: EVQLLESGGGLVQPGGSLRLSCAASGFTFSVYDMNWVRQAPGKGLEWVSSISSSGGGTLYADSVKGRFTISRDNSKNTLYLQMNSLRAEDTAVYYCARDSDTSSYYWYYDLWGRGTLVTVSS
VL: DIQMTQSPSSLSASVGDRVTITCQASHDISNYLNWYQQKPGKAPKLLIYAASRLQSGVPSRFSGGGSGTDFSLTISSLQAEDFATYYCQQSYSFPRTFGQGTNLEIK
notes: IgG form of the Fab; also called non-germlined M0064-E04
The Kd is a measure of binding affinity in units of concentration. The molecule B3 displayed a Kd in experiment [3] of 520 pM. The “competition score (0 = does not compete significantly, 5 = competes strongly)” value in [4] and in experiment [5] was 5 score 0-5 throughout. Besides, the binding result with IGF binding protein BP2 and with IGF binding protein BP4 was “no binding (tested: 50 nM)” in each case. Moreover, the “IC50, IGF-II stimulated BaF3 cell proliferation (Guava ViaCount)” value in experiment [6] is ~19000 pM.

B4: X0008-A01 (germlined M0064-F02 IgG) (antibody, V domains shown)
VH: EVQLLESGGGLVQPGGSLRLSCAASGFTFSNYIMWWVRQAPGKGLEWVSVISSSGGMTRYADSVKGRFTISRDNSKNTLYLQMNSLRAEDTAVYYCARDNGDYVGEKGFDIWGQGTMVTVSS
VL: DIQMTQSPSSLSASVGDRVTITCRASQSISNYLNWYQQKPGKAPKLLIYTASTLQSGVPSRFSGSGSGTDFTLTISSLQPEDFATYYCQQSYNSPWTFGQGTKVEIK
For the molecule B4, binding in [7] was put at a Kd of 23 pM.

B5: M0080-G03 Fab (Fab, V domains shown)
VH: EVQLLESGGGLVQPGGSLRLSCAASGFTFSFYQMMWVRQAPGKGLEWVSSISPSGGRTYYADSVKGRFTISRDNSKNTLYLQMNSLRAEDTAVYYCAKDIGLGYCSSTSCYTGTPLDYWGQGTLVTVSS
VL: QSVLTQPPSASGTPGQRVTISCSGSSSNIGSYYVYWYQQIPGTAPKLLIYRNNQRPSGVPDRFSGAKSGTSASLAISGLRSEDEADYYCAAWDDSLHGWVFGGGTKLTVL
notes: Anti-IGF-IIE Fab; the constant regions are printed only in part; also called 566A-M0080-G03; 566A-X0004-A02
In the case of B5, the binding result in experiment [1] is reported as “no binding”.

B6: M0080-G03 IgG (antibody, V domains shown)
VH: EVQLLESGGGLVQPGGSLRLSCAASGFTFSFYQMMWVRQAPGKGLEWVSSISPSGGRTYYADSVKGRFTISRDNSKNTLYLQMNSLRAEDTAVYYCAKDIGLGYCSSTSCYTGTPLDYWGQGTLVTVSS
VL: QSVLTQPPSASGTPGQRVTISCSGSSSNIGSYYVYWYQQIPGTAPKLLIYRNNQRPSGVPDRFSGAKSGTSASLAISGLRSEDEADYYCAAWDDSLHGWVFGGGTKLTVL
notes: also called 566A-M0080-G03; 566A-X0004-A02
Take B6: in experiment [2], the binding result is on record as “no binding (tested: 50 nM)”.

The record behind these values is US20110262446A1 (published 2011).
